Experimental data published in patent publication US20040005647A1 (University of California, published 2004).
“And” between values parts separate entries of the source, which are not always exact repeats. Equal entries are not always repeated.

Tests used:
[1] = biological target: T1, MUC-1 antigen expressed on MCF-7 human breast adenocarcinoma cells (human, UniProt P15941 24-1255); experiment: immunohistochemistry on a section of the same prostate cancer; biotinylated anti-mouse antibody and colour reagent
T1 construct: whole, on cells; Scatchard analysis and immunocytochemistry used MCF-7 cells; also called MUC-1 mucin; MUC-1 membrane antigen
T1 sequence (P15941 24-1255): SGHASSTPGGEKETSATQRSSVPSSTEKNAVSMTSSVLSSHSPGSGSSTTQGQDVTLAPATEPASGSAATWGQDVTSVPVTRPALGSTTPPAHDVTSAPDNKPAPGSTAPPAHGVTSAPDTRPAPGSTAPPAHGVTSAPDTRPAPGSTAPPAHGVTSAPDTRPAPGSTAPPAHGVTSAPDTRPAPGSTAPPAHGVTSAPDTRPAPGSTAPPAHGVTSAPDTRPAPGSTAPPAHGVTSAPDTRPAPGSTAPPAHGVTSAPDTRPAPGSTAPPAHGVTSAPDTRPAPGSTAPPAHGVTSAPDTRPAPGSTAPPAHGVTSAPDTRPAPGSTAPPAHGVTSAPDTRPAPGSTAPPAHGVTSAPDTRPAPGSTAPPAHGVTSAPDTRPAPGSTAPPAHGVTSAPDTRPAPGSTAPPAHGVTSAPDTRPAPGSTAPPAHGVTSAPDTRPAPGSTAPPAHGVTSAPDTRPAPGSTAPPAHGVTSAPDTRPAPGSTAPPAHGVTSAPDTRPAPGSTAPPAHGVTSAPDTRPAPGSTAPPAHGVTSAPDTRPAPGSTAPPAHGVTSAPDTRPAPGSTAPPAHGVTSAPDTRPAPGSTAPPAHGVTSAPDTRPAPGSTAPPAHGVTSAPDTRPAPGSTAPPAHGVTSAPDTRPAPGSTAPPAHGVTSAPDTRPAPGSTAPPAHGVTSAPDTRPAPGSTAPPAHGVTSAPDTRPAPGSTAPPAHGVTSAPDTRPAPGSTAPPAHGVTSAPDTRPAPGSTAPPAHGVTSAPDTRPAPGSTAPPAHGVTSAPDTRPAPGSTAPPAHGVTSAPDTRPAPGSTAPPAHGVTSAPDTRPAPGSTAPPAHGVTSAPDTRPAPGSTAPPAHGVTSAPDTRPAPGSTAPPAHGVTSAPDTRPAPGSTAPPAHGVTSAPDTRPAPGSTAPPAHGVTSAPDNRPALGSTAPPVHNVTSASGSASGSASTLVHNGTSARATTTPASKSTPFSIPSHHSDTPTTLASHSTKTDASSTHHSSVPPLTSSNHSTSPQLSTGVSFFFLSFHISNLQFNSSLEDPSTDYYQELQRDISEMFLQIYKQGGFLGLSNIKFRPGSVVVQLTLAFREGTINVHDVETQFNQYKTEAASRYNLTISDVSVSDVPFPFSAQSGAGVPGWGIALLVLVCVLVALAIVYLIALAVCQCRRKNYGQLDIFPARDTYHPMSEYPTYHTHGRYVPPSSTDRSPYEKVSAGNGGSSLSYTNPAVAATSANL
Source text: FIG. 4 illustrates staining of prostate cancer using three of the scFv described herein. The scFv is placed on the tissue on the slide and then washed off followed with a biotinylated anti mouse antibody for reaction with any bound scFv and then with a color reagent.

[2] = biological target: T1, MUC-1 antigen expressed on MCF-7 human …; experiment: competitive ELISA: scFv on plated MCF-7 lysate, soluble MCF-7 lysate (MUC-1) as competitor at 1 nM
Procedure: (§1) Competitive ELISA analysis was performed in triplicate at each concentration. Incubations were carried out at 37EC for 1.5 hrs. Following each incubation, the plates were washed with PBS pH 7.4 containing 0.5% Tween 20 followed by PBS washes alone. Pro-Bind™ ELISA assay plates (Becton Dickinson Labware, Franklin Lakes, N.J.) were coated overnight at room temperature with the MCF-7 cell lysate (200 μg/well) in 15 mM sodium bicarbonate buffer pH 9.6. The ELISA plates were rinsed with PBS and blocked with PBS containing 3.0% dried non-fat milk for 1 hr. at room temperature. Ten percent bovine serum albumin (BSA) was used as a negative control. In a separate plate, soluble scFv containing 10% Tween 20 were prepared and stored on ice for 15 minutes. MCF-7 cell Tysate used as the competitor was diluted in 3% non-fat milk to provide the following concentrations 100 nM, 10 nM and 1 nM. The soluble scFv was transferred to the ELISA plate and incubated with the competitor. 100 μl of anti-E-tag diluted 1:250 in 3% non-fat milk solution was added to the wells and the plate incubated. The plate was developed with 2,2′-Amino-bis-3-ethylbenzthiazoline-6-sulfonic acid (ABTS) (Sigma-Aldrich, St. Louis, Mo.) containing 0.3% H₂O₂. The plate was read using a microplate reader at an absorbency of A₄₀₅ nM (Dynex, Chantilly, Va.). Data was generated from three separate trials and analyzed.

[3] = biological target: T1, MUC-1 antigen expressed on MCF-7 human …; experiment: competitive ELISA regression, second experiment
Procedure: as §1

[4] = biological target: T1, MUC-1 antigen expressed on MCF-7 human …; experiment: competitive ELISA regression, third experiment (not statistically significant)
Procedure: as §1

[5] = biological target: T1, MUC-1 antigen expressed on MCF-7 human …; experiment: competitive ELISA regression, estimates of single experiments
Procedure: as §1

[6] = biological target: T1, MUC-1 antigen expressed on MCF-7 human …; experiment: linear regression of competitive ELISA data
Procedure: as §1

[7] = biological target: T1, MUC-1 antigen expressed on MCF-7 human …; experiment: Scatchard analysis, 125I-12E scFv on MCF-7 cells with unlabeled competitor; 25 kD fraction, monovalent
[8] = biological target: T1, MUC-1 antigen expressed on MCF-7 human …; experiment: Scatchard analysis, 125I-12E scFv on MCF-7 cells with unlabeled competitor; 42 kD fraction, diabody (divalent)

B1: B5 scFv (scFv)
scFv: MAQVKLQESGAELVRPGASVTLSCKASGYTFTDYEMHWVKQTPVHGLEWIGAIDPETGGTAYNQKFKGKATLTADKSSSTAYMELRSLTSEDSAVYYCTRDGYYAWFAYWGQGTTVTVSSGGGGLGGGGSGGGGSDIELTQSPAIMSASPGERVTMTCSASSSIRYIYWYQQKPGSSPRLLIYDTSNVAPGVPFRFSGSGSGTSYSLTINRMEAEDAATYYCQEWSGYPYTFGGGTKLELKRAAAGAPVPYPDPLEPRAA
notes: The sheet prints only the panel letter G
Does B1 bind [1]?
Result: binds

B2: anti-MUC-1 C4 scFv (scFv)
scFv: QVQLQESGPGLVQPSQSLSITCTVSGFSLTAYGVHWIRQSPGKGLEWLGVIWSGGGTDYNPAFISRLNINKDNSKSQVFFKVDSLQLDDRGIYYCVRRNGYFFDSWGQGTTVTVSSSGRFSGGGSGGGGSDIELTQSPASLLCLWGRGPPSHAGPTMVVSTSGYNFIYWSQQKPGQSPKLLIYLSSNLESGVPARVSGSGSRTYFTLNIHPVEEEDAATFYCRHTRELPCTFGGRTKLEIKRAAAGAPVPYPDPLEPRAA
How did the “percent inhibition of binding with 1 nM of competitor” value [2] turn out when B2 was run?
Its value is 94%.

What about the Ka [3] of the same binder?
Its Ka is 2.3e+08 M⁻¹.

And the Ka [4]?
Its Ka is 1.01e+09 M⁻¹.

B3: anti-MUC-1 3D scFv (scFv, V domains shown)
VH: QVKLQESGPEVVKPGASVKLSCKASGYIFTSYDIDWVRQTPEQGLEWIGWIFPGEGSTEYNEKFKGRATLSVDKSSSTAYMELTRLTSEDSAVYFCARGDYYRRYFDLWGQGTTVTVSS
notes: After the linker stands a short composite of N- and C-terminal pieces of a VL, with no light-chain loops; also called clone 3D
What does the source list for B3?
percent inhibition of binding with 1 nM of competitor [2]: 50%; Ka [5]: 1.2e+08 to 1.5e+08 M⁻¹; Ka [6]: 2.2e+08 M⁻¹ and > 1e+08 M⁻¹

B4: anti-MUC-1 12E scFv (scFv)
scFv: QVKLQQSGTEVVKPGASVKLSCKASGYIFTSYDIDWVRQTPEQGLEWIGWIFPGEGSTEYNEKFKGRATLSVDKSSSTAYMELTRLTSEDSAVYFCARGDYYRRYFDLWGQGTTVTVSSRGGGSGGGGSGGGGSDIELTQSPAIMSASPGERVTMTCSASSSIRYIYWYQQKPGSSPRLLIYDTSNVAPGVPFRFSGSGSGTSYSLTINRMEAEDAATYYCQEWSGYPYTFGGGTKLELKRAAAGAPVPYPDPLEPRAA
notes: As printed it begins with a vector leader and ends with the E-tag; Mouse scFv from pCANTAB 5E, expressed in E. coli; also called clone 12E
What does the source list for B4?
percent inhibition of binding with 1 nM of competitor [2]: 50%; Ka [6]: 1.7e+08 M⁻¹ and > 1e+08 M⁻¹

B5: 125I-anti-MUC-1 12E scFv, 25 kD fraction (monovalent) (scFv)
scFv: QVKLQQSGTEVVKPGASVKLSCKASGYIFTSYDIDWVRQTPEQGLEWIGWIFPGEGSTEYNEKFKGRATLSVDKSSSTAYMELTRLTSEDSAVYFCARGDYYRRYFDLWGQGTTVTVSSRGGGSGGGGSGGGGSDIELTQSPAIMSASPGERVTMTCSASSSIRYIYWYQQKPGSSPRLLIYDTSNVAPGVPFRFSGSGSGTSYSLTINRMEAEDAATYYCQEWSGYPYTFGGGTKLELKRAAAGAPVPYPDPLEPRAA
modifications: 125I-labelled (Chloramine T method)
notes: HPLC (SEC-2000) fraction of iodinated 12E scFv, representative of the monovalent scFv; also called monomeric form of the 12E scFv
How did the Ka [7] turn out when B5 was run?
Its Ka is 8.6e+07 M⁻¹.

B6: 125I-anti-MUC-1 12E scFv, 42 kD fraction (divalent, considered a diabody) (scFv)
scFv: QVKLQQSGTEVVKPGASVKLSCKASGYIFTSYDIDWVRQTPEQGLEWIGWIFPGEGSTEYNEKFKGRATLSVDKSSSTAYMELTRLTSEDSAVYFCARGDYYRRYFDLWGQGTTVTVSSRGGGSGGGGSGGGGSDIELTQSPAIMSASPGERVTMTCSASSSIRYIYWYQQKPGSSPRLLIYDTSNVAPGVPFRFSGSGSGTSYSLTINRMEAEDAATYYCQEWSGYPYTFGGGTKLELKRAAAGAPVPYPDPLEPRAA
modifications: 125I-labelled (Chloramine T method)
notes: HPLC (SEC-2000) fraction of iodinated 12E scFv, considered to be a diabody (divalent); also called bivalent form of the 12E scFv
Which Ka [8] does the source give for B6 here?
Its Ka is roughly 1.7e+08 M⁻¹.
